In publication PMC4233142 one finds percent of RFP-expressing cells that also expressed YFP data, which are given here for one substance.

In the assay the target is YFPC-2aCore (hepatitis C virus genotype 2a (JFH-1)) (UniProt Q99IB8). The assay is described as follows: split reporter.

“YFPN-2a5B (from UniProt Q99IB8 2443-3033) (natural protein)” displayed a percent of RFP-expressing cells that also expressed YFP of 43%.
